The source of these data is US20160024208A1 (Regeneron, published 2016).

As usually defined, the Kd is the concentration at which binding is half-saturated.

Assay [1] deals with T1, N-Term Biotin-Nav1.7 (3-3) peptide, human (same sequence of EC3-3 for mulatta) (human (same sequence of EC3-3 for …, not fully specified; N-terminal biotin attached via a G4S linker).
T1 construct: ELISA peptide
T1 peptide: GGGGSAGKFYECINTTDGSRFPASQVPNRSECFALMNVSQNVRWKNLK
Kind of assay: ELISA on coated peptide, antibody 1 ug/ml, OD450 grade; Human. As for the experimental part:
(§1) Anti-Naᵥ 1.7 antibodies were tested for their ability to bind to the Naᵥ 1.7 peptides. The various peptides were coated overnight onto 96-well Nunc Immunosorp plates at a concentration of 4 μg/mL in PBS, followed by blocking for 1 hour in a suitable blocking agent. For biotinylated peptides, avidin was first coated on Nunc Immunosorp plates at 2 μg/mL in PBS overnight, followed by blocking as described, and the plate was then coated with biotinylated peptides at a concentration of 0.4 μg/mL and incubated for 1 hour at room temperature. Purified anti-Naᵥ 1.7 antibodies were diluted to a final concentration of 0.1 μg/mL and 1.0 μg/mL and added to the wells of the coated microtiter plates followed by incubation for 1 hour at room temperature. Bound antibodies were detected with horseradish peroxidase (HRP) conjugated anti-mouse or anti-human IgG (Jackson Immuno Research Lab, West Grove, Pa.) depending on the antibody species and developed by colorimetric response using tetramethylbenzidine (TMB) substrate (BD Biosciences). Absorbance was read at OD₄₅₀ on a plate reader for 0.1 second.
(§2) Values in Table 11 represent absolute binding ranges (at OD450) to plate-coated peptides for antibodies added at 1 μg/ml as follows: OD450<0.2: −; 0.2<OD450<1: +; 1<OD450<2: ++; 2<OD450<4: +++; NT: Not Tested.
(In general: In an ELISA, binding on a coated surface is turned into a signal by an enzyme label.)

For assay [2], the target named is T1, N-Term Biotin-Nav1.7 (3-3) peptide, …. Kind of assay: ELISA on coated peptide, antibody 1 ug/ml, OD450 grade; Monkey column. The method, then:
as §1, §2

Assay [3] concerns the target T2, N-term Biotin Nav1.7 (3-3) peptide, mouse (mouse, N-terminal biotin attached via a G4S linker).
T2 construct: ELISA peptide
T2 peptide: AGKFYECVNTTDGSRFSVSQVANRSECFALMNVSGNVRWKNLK
Kind of assay: ELISA on coated peptide. The method, then:
as §1, §2

In assay [4] the target is T3, Native Nav1.7 (3-3) peptide, rat (rat).
T3 construct: ELISA peptide
T3 peptide: T2 peptide with S17P, V18T
Kind of assay: ELISA on coated peptide, antibody 1 ug/ml, OD450 grade. Summed up: (§3)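 Peptides coated at 4 μg/mL in PBS, or biotinylated peptides captured at 0.4 μg/mL on avidin (2 μg/mL). Antibodies at 0.1 and 1.0 μg/mL, 1 h at room temperature, detected with HRP anti-mouse or anti-human IgG and TMB at OD450. Scores at 1 μg/ml: <0.2 −; 0.2–1 +; 1–2 ++; 2–4 +++.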

The target of assay [5] is T4, full-length human Nav1.7 fused at its N-terminus to GFP, expressed in HEK293 cells (human, UniProt Q15858 1-1988). Kind of assay: cell-based or functional assay.
Assay [6] concerns the target T3, Native Nav1.7 (3-3) peptide, rat. Kind of assay: ELISA on coated peptide. As for the experimental part: as §1, §2
Assay [7] has as its target T5, Native Nav1.7 (3-1) peptide, human (human).
T5 construct: Synthetic peptide (Celtek), unbiotinylated; also called Human Nav1.7 3-1 native; Nav1.7 3-1 native peptide
T5 peptide: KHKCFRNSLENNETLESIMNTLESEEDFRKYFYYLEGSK
Kind of assay: Biacore (second token of ELISA/Biacore summary).

Assay [8] concerns the target T6, N-Term Biotin Nav1.7 (3-1) peptide, mulatta (mulatta (monkey), not fully specified; N-terminal biotin attached via a G4S linker).
T6 construct: Synthetic peptide; also called Mulatta Nav1.7 3-1 N-term biotin; monkey
T6 peptide: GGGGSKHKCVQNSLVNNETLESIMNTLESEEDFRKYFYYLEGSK
Kind of assay: ELISA on coated peptide, antibody 1 ug/ml, OD450 grade. Summed up: as §3

In assay [9] the target is T7, N-Term Biotin-Nav1.7 (3-1) peptide, human (human, not fully specified; N-terminal biotin attached via a G4S linker).
T7 construct: ELISA peptide
T7 peptide: T6 peptide with V10F, Q11R, V15E
Described as above. Summed up: as §3

The target of assay [10] is T8, Native Nav1.7 (3-1) peptide, rat (rat).
T8 construct: Synthetic peptide; also called Rat Nav1.7 3-1 native
T8 peptide: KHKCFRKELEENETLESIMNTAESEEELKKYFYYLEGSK
The description is as above. Summed up:
as §3

Assay [11] concerns the target T6, N-Term Biotin Nav1.7 (3-1) peptide, …. Kind of assay: SPR, captured antibody, peptide analyte. The method in brief: (§4)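 Biacore SPR: antibody captured via Fc on anti-Fc surface, Nav1.7 loop peptides injected as analyte at several concentrations. Double-referenced sensorgrams globally fitted to a 1:1 model; KD = kd/ka, t1/2 = ln2/kd.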
On the technique in general: In SPR one partner is held on a chip, and binding of the other changes the refractive index at the surface.

Assay [12] concerns the target T5, Native Nav1.7 (3-1) peptide, human. Kind of assay: SPR, captured antibody, peptide analyte. Summed up: as §4
Assay [13] addresses T6, N-Term Biotin Nav1.7 (3-1) peptide, …. Kind of assay: ELISA on coated peptide. The method, then: as §1, §2
Assay [14] addresses T9, C-term Biotin Nav1.7 (3-1) peptide, human (human, not fully specified; C-terminal biotin attached via a G4S linker).
T9 construct: Synthetic peptide; also called Human Nav1.7 3-1 C-term biotin
T9 peptide: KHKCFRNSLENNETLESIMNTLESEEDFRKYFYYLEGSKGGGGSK
Kind of assay: SPR, captured biotin-peptide, antibody analyte.

Assay [15] has as its target T5, Native Nav1.7 (3-1) peptide, human. Kind of assay: SPR, captured antibody, peptide analyte; IC = binding data could not be fit. The method, then: The binding affinities of anti-Naᵥ 1.7 antibodies to Naᵥ 1.7 loop peptides were determined by Biacore. For monovalent kinetic experiments, antibodies were captured through the Fc region via a goat anti-Fc-coupled biosensor surface, and the peptides (as analyte) were injected over this captured antibody surface. For bivalent (avidity-driven) kinetic experiments, biotinylated peptides corresponding to the Naᵥ 1.7 3-1, 3-3, or paddle loop sequences were captured on a NeutrAvidin sensor surface, and anti-Naᵥ 1.7 antibodies (as analyte) were injected over this surface. Following the capture step, each analyte was individually injected at several concentrations over its respective capture surface, and changes in bound surface units (RU) were monitored. The dissociation rate is independent of the concentration of analyte used in the experiment, and the dissociation rate constant (kd) was determined from the change in antibody-bound analyte RU over time. The Biacore kinetic data were obtained using a double referencing procedure. […] The KD was calculated as the dissociation rate constant divided by the association rate constant (KD=kd/kₐ). The dissociative half-life (t_{1/2}) was calculated from the dissociation rate constant (t_{1/2}=In2/kd).

The target in assay [16] is T4, full-length human Nav1.7 fused at its …. Kind of assay: flow cytometry; % stained hNav1.7-GFP-HEK293 minus parental HEK293. Summed up: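 Antibody (1-13 nM) incubated 20 min on ice with stably transfected hNav1.7-GFP-HEK293 or parental HEK293 cells in PBS/5% FBS, then 1.7 nM Cy5- or APC-labelled anti-Fc secondary for 20 min on ice. Flow cytometry of live-gated cells; specific binding = % stained transfected minus % stained parental.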
(In flow cytometry, cells or beads pass a laser one at a time.)

Substitutions are numbered along the chain they refer to.

B1: H4H468B (antibody, V domains shown)
VH: EVQLVQSGGGVVQPGRSLRLSCTASGFTFSVYGIHWVRQAPGKGLEWVAVIWYDGSNKYYTDSVKGRFTISRDNSKNTLYLQMNSLRAEDTALYYCAREGDLSSSSGSGGYHYVVDVWGQGTMVTVSS
VL: DIQMTQSPSSLSASVGDRVTITCRASQDIRNDLGWYQQKPGNAPKLLIYSTSSLQSGVPSRFSGSGSGTDFTLTISSLQPEDFATYYCLQDYNYPLTFGGGTKVEIKR
Regarding B1, the OD450 in assay [1] was 1 to 2 od; in assay [2], 1 to 2 od; in [3], less than 0.2 od; in assay [4] it was 2 to 4 od.

B2: H4H471B (antibody, V domains shown)
VH: EVQLVESGGGLVKPGGSLRLSCAASGVTFSDYYMTWIRQAPGKGLEWVSYISTDGRTIYYADSVKGRFTISRDNAKNSLYLQMNNLRAEDTAVYYCARGVDSDDYEDFYSYYDMDVWGQGTTVTVSS
VL: DIQMTQSPSSLSASVGDRVTITCRASQGISNYLAWFQQKPGKAPKSLIYAASSLQGGVPSRFSGSGSGTDFTLTISSLQPEDFATYYCQQYNSYPLTFGGGTKVEIKR
For B2, the OD450 was 2 to 4 od in assay [1], 2 to 4 od in assay [2] and less than 0.2 od in assay [6]. In assay [5], the “Current blocking (Average % inhibition), IonWorks Quattro, 223 nM antibody” value (“Current blocking (Average % inhibition)” for short) stood at 57%.

B3: H4H439B (antibody, V domains shown)
VH: QVQLQQWGAGLLKPSETLSLTCAVYGGSFSGHYWSWIRQPPGKGLEWIGEINHRGSTNYNPSLKSRATISVDTSKNQFSLKLSSVTAADTAVYYCAREGSLAARLWFFDLWGRDTLVTVSS
VL: DIQMTQSPSSLSASVGDRGTITCRASQDIRTYLNWYQQKPGKAPKLLIYAASSLQSGVPSRFSGSGSGTDFTLTISSLQPEDFATYYCQQSYGTPYTFGQGTKVEIKR
Turning to B3, in [5], the “Current blocking (Average % inhibition)” value worked out at 33.6%. In [7], the binding result is listed as “binds”. Moreover, the OD450 in assay [8] was in the range of 2 to 4 od; in assay [9], 2 to 4 od; in [10] it was 1 to 2 od.

B4: H4H448B (antibody, V domains shown)
VH: EVQLVQSGGGLVQPGRSLRLSCAASGFTFDDYAMHWVRQAPGKGLEWVSGISWNSGSIGYADSVKGRFTISRDNAKNSLYLQMNSLRAEDTALYYCAKDIEYYDILTGYYSYYIMDVWGQGTTVTVSS
VL: B3 VL with Q3R, D28N, R30N, T31S, Q38L, Y49F, G93S, T94S, Y96F
For the molecule B4, the binding result in assay [11] is reported as “no binding”. In assay [12], this molecule yielded a Kd of 21.9 nM and a t1/2 of 1.8 min. The same molecule showed an OD450 in assay [13] of less than 0.2 od. Also, the OD450 in assay [9] was 2 to 4 od.

B5: H1H1003B (antibody, V domains shown)
VH: QVQLVESGGGLVQPGGSLRLSCAASGFTLSSYAMSWVRQAPGKGLEWVSTISGSGIIYYTDSVKGRFTISRDSSKNTLYLQMNSLRVEDTAVYYCAKDRGAAAGAFDYWGQGTLVTVSS
VL: AIQLTQSPDSLAVSLGERATIKCKSSQSVLYSSNNKNYLAWYQQKPGQPPNLLIYWASTRESGVPDRFSGSGSGTDFTLTISSLQAEDVAVYYCQQYFSFGQGTKVDIKR
Take B5: the Kd in assay [14] was determined as 2.64 nM. Moreover, the t1/2 in [14] stood at 27.8 min. The “Current blocking (Average % inhibition)” value in assay [5] is 32.5%. Further, in [15], the binding result is reported as “binds”. Moreover, the “% Binding Nav1.7” value in assay [16] stood at 1.3%. Further, the OD450 in assay [8], in assay [9] and in assay [10] was 2 to 4 od each time.
